Non-standard residues stand in square brackets, D forms with d. No end group written: not given here.

Chain of A-beta1-42 (P05067 672-713 limits assumed): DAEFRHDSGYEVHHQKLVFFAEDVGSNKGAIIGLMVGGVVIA

This assay has as its target A-beta1-42 (UniProt P05067). The assay can be described thus: iodixanol density gradient centrifugation of A-beta1-42 with FITC-labelled peptide; dye in fraction 12.
With [dR][dP][dR][dT][dR][dL] [NT-D3 (D3-N-Terminus) (SEQ ID NO: 6)], the Peptide bound in fraction 12 [%] is 0%.
The same measure for [dP][dT][dL][dH][dT][dH][dN][dR][dR][dR][dR][dR] (also: FITC label, site not given here) [RD2 (rational D3) (SEQ ID NO: 2)]: 20%.
The molecule [dR][dR][dP][dT][dL][dR][dH][dT][dH][dN][dR][dR] (also: FITC label, site not given here) [RD3 (rational D3) (SEQ ID NO: 4)] showed a Peptide bound in fraction 12 [%] of 4%.
To [dR][dP][dR][dT][dR][dL][dR][dN][dR] (also: FITC label, site not given here) [D3Δhth (D3 with deletion hth) (SEQ ID NO: 1)] belongs 2%.
For the molecule [dR][dP][dR][dT][dR][dL][dH][dT][dH][dR][dN][dR] (also: FITC label, site not given here) [D3 (SEQ ID NO: 11)], the Peptide bound in fraction 12 [%] was found to be 4%.

These data come from patent publication US20190085030A1.
